# Source: patent US20090291890A1 (published 2009)
# Where “and” joins values, the source holds several entries; their conditions need not be identical. Equal values may be shown once.
# Columns and labels:
# wild-type FVIIa (human) [1] = target: wild-type FVIIa (human)
# wild-type FVIIa (human) [2] = target: wild-type FVIIa (human); remark: listed apart in the source
# [3] = target: T128N/P129A/S222A-FVIIa (human)
# [4] = target: S222A/T239I/H257A/Q286R/M298Q-FVIIa (human)
# [5] = target: Gla swap FIX/T239V/Q286R/M298Q-FVIIa (human)
# [6] = target: T239I/Q286R-FVIIa (human)
# [7] = target: A122N/G124S/A175S/Q286R/M298Q-FVIIa (human)
# [8] = target: Q286R/M298Q/Q366N-FVIIa (human)
# [9] = target: {Gla swap FIX/E40L}/Q286R/M298Q-FVIIa (human)
# [10] = target: S222A/Q286R/M298Q/H373F-FVIIa (human)
# [11] = target: {Gla swap FIX/Q44S}/Q286R/M298Q-FVIIa (human)
# [12] = target: Gla swap FIX/S222A/Q286R/M298Q-FVIIa (human)
# [13] = target: V158D/T239V/E296V/M298Q-FVIIa (human)
# [14] = target: T128N/P129A/A175S/Q286R/M298Q/H373F-FVIIa (human)
# [15] = target: T239V/Q286R/M298Q-FVIIa (human)
# [16] = target: T128N/P129A/Q286R/M298Q/Q366N/H373F-FVIIa (human)
# [17] = target: T128N/P129A/Q286R/M298Q/H373F-FVIIa (human)
# [18] = target: T128N/P129A/A175S/S222A/H257A/Q286R/M298Q-FVIIa (human)
# [19] = target: Q286R/H373F-FVIIa (human)
# [20] = target: T128N/P129A/T239I/Q286R/M298Q/H373F-FVIIa (human)
# [21] = target: S222A/T239V-FVIIa (human)
# [22] = target: V158D/Q286R/E296V/M298Q/H373F-FVIIa (human)
# [23] = target: H257A/Q286R/M298Q-FVIIa (human)
# [24] = target: S222A/H257A/Q286R-FVIIa (human)
# [25] = target: T128N/P129A/A175S/Q286R-FVIIa (human)
# [26] = target: S52A/S60A/S222A/H257A/Q286R/M298Q-FVIIa (human)
# [27] = target: A122N/G124S/A175S/Q286R-FVIIa (human)
# [28] = target: Gla swap FIX/A122N/G124S/A175S/S222A/Q286R-FVIIa (human)
# [29] = target: A122N/G124S/A175S/S222A-FVIIa (human)
# [30] = target: T128N/P129A/Q286R-FVIIa (human)
# [31] = target: T128N/P129A-FVIIa (human)
# [32] = target: A122N/G124S/A175S/S222A/H257A/Q286R/M298Q-FVIIa (human)
# [33] = target: S222A/T239V/H257A/Q286R/M298Q-FVIIa (human)
# wild-type FVIIa (human) [34] = target: wild-type FVIIa (human); remark: listed apart in the source
# [35] = target: A122N/G124S/A175S-FVIIa (human)
# [36] = target: T239I/M298Q/H373F-FVIIa (human)
# [37] = target: T128N/P129A/Q286R/M298Q/Q366N-FVIIa (human)
# [38] = target: T239I/Q286R/M298Q/Q366N-FVIIa (human)
# [39] = target: T128N/P129A/A175S-FVIIa (human)
# [40] = target: M298Q/Q366N/H373F-FVIIa (human)
# [41] = target: S119N/L121S/A175S-FVIIa (human)
# [42] = target: T128N/P129A/T239V/Q286R/M298Q-FVIIa (human)
# [43] = target: T128N/P129A/M298Q-FVIIa (human)
# [44] = target: Gla swap FIX/T128N/P129A/A175S/S222A/Q286R-FVIIa (human)
# [45] = target: A122N/G124S/A175S/Q366V-FVIIa (human)
# [46] = target: T128N/P129A/T239V/Q286R/M298Q/H373F-FVIIa (human)
# [47] = target: Gla swap FIX-FVIIa (human)
# [48] = target: T128N/P129A/S222A/T239V/H257A/Q286R/M298Q-FVIIa (human)
# [49] = target: S222A/T239I-FVIIa (human)
# [50] = target: S222A/Q286R/M298Q-FVIIa (human)
# [51] = target: T128N/P129A/A175S/Q366V-FVIIa (human)
# [52] = target: V158D/Q286R/E296V/M298Q-FVIIa (human)
# [53] = target: M298Q/H373F-FVIIa (human)
# antithrombin III, sequence (P01008 33-464): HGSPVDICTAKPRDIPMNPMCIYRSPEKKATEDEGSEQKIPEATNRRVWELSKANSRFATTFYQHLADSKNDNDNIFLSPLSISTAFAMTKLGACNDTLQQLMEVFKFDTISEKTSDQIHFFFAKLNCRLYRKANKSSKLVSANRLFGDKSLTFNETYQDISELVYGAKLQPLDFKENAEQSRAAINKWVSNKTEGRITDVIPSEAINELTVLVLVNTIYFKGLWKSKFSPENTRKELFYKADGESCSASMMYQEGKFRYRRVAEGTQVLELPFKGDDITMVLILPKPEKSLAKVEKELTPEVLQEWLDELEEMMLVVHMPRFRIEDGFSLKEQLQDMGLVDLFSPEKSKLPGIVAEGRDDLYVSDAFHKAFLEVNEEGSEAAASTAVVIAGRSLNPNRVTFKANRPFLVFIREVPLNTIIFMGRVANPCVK
substance,measurement,setting,value
antithrombin III,"K0.5, TF-independent, FVIIa from 293-F cells",wild-type FVIIa (human) [1],2260 nM
same,"K0.5 mut/K0.5 wt, TF-independent, 293-F cells",wild-type FVIIa (human) [1],1
same,"K0.5 mut/K0.5 wt, TF-independent, BHK-21 cells",wild-type FVIIa (human) [1],1
same,"K0.5, TF-dependent, FVIIa from 293-F cells",wild-type FVIIa (human) [2],72.3 nM
same,"K0.5, TF-dependent, FVIIa from BHK-21 cells",wild-type FVIIa (human) [2],56 nM
same,"K0.5 mut/K0.5 wt, TF-dependent, 293-F cells",wild-type FVIIa (human) [2],1
same,"K0.5 mut/K0.5 wt, TF-dependent, BHK-21 cells",wild-type FVIIa (human) [2],1
same,K0.5,[3],401 nM
same,K0.5,[4],1220 nM
same,K0.5,[5],484 nM and 314 nM
same,K0.5,[6],5.82 µM
same,K0.5,A175S-FVIIa (human),1330 nM
same,K0.5,[7],1950 nM
same,K0.5,[8],324 nM
same,K0.5,[9],287 nM
same,K0.5,[10],163 nM
same,K0.5,[11],271 nM
same,K0.5,[12],266 nM
same,K0.5,[13],67.7 nM and 67.1 nM
same,K0.5,[14],1130 nM
same,K0.5,[15],3.63 µM
same,K0.5,[16],148 nM
same,K0.5,[17],183 nM
same,K0.5,[18],3.21 µM
same,K0.5,[19],621 nM
same,K0.5,[20],317 nM
same,K0.5,[21],967 nM
same,K0.5,[22],62.1 nM
same,K0.5,[23],391 nM
same,K0.5,[24],2590 nM
same,K0.5,[25],9.55 µM
same,K0.5,[26],448 nM
same,K0.5,[27],6.92 µM
same,K0.5,[28],5.52 µM
same,K0.5,[29],1550 nM
same,K0.5,[30],1650 nM and 1740 nM
same,K0.5,[31],465 nM
same,K0.5,[32],2970 nM
same,K0.5,K109N-FVIIa (human),330 nM
same,K0.5,[33],469 nM
same,K0.5,wild-type FVIIa (human) [34],394 nM and 503 nM
same,K0.5,[35],1350 nM
same,K0.5,[36],179 nM
same,K0.5,[37],346 nM
same,K0.5,[38],813 nM
same,K0.5,[39],1390 nM
same,K0.5,[40],90.8 nM
same,K0.5,[41],1640 nM
same,K0.5,[42],266 nM
same,K0.5,[43],144 nM
same,K0.5,[44],6.49 µM
same,K0.5,[45],336 nM
same,K0.5,[46],121 nM
same,K0.5,[47],299 nM
same,K0.5,[48],326 nM
same,K0.5,[49],1150 nM
same,K0.5,S222A-FVIIa (human),384 nM
same,K0.5,[50],308 nM
same,K0.5,[51],333 nM
same,K0.5,[52],85 nM
same,K0.5,[53],81.7 nM
